Results from patent US20180030151A1 (MOGAM INSTITUTE FOR BIOMEDICAL RESEARCH, published 2018).
Like-named read-outs stand apart in the source and are kept apart here.

Assays:
Test in all cases: cell-based or functional assay
[1] = molecular target: T1, recombinant human TFPI (tissue factor pathway inhibitor) (human, UniProt P10646 29-304)
[2] = molecular target: T1, recombinant human TFPI (tissue factor …); remark: listed apart in the source
[3] = molecular target: T1, recombinant human TFPI (tissue factor …); remark: listed apart in the source
[4] = molecular target: T1, recombinant human TFPI (tissue factor …); remark: listed apart in the source
[5] = molecular target: T1, recombinant human TFPI (tissue factor …); remark: listed apart in the source
[6] = molecular target: T1, recombinant human TFPI (tissue factor …); remark: listed apart in the source

Row | Binder | FXa assay % of FXa alone, 2.5 nM Ab, 10 nM TFPI [3] | FXa assay % of FXa alone, 10 nM Ab, 10 nM TFPI [3] | FXa assay % of FXa alone, 20 nM Ab, 10 nM TFPI [3] | FXa assay % of FXa alone, 2.5 nM Ab, 10 nM TFPI [5] | FXa assay % of FXa alone, 5 nM Ab, 10 nM TFPI [5] | FXa assay % of FXa alone, 10 nM Ab, 10 nM TFPI [5] | FXa assay % of FXa alone, 20 nM Ab, 10 nM TFPI [5] | FXa assay OD, 10 nM Ab, 10 nM TFPI [5] | FXa assay OD, 20 nM Ab, 10 nM TFPI [5] | other results
1 | clone 11 (antibody, V domains shown) VH: EVQLVESGGGLVKPGGSLRLSCAASGFTFSSYAMNWVRQAPGKGLEWVGTITTGGSYTYYADSVEGRFTISRDNAKNSLYLQMNSLRAEDTAVYYCARQDGNFLMDYWGQGTLVTVSS VL: DVVMTQTPLSLPVTLGQPASISCKSSPSLLDIDGKTYLNWLQQRPGQSPKRLIYLVSKLDSGVPDRFTGSGSGTDFTLKISRVEAEDVGVYYCWQGTHFPFTFGQGTKVEIKR |  |  |  |  |  |  |  |  |  | effect of inhibiting TFPI, FXa activity assay, Ab 10 nM [1]: ~81%; effect of inhibiting TFPI, FXa activity assay, Ab 20 nM [1]: ~89%; FXa assay % of FXa alone, 2.5 nM Ab, 10 nM TFPI [2]: 7%; FXa assay % of FXa alone, 5 nM Ab, 10 nM TFPI [2]: 29.6%; FXa assay OD, 2.5 nM Ab, 10 nM TFPI [2]: 0.0575; FXa assay OD, 5 nM Ab, 10 nM TFPI [2]: 0.244; FXa assay OD, 10 nM Ab, 10 nM TFPI [2]: 0.672; FXa assay OD, 20 nM Ab, 10 nM TFPI [2]: 0.734
2 | clone 3016 (antibody, V domains shown) VH: EVQLVESGGGLVKPGGSLRLSCAASGFTFSSYAMNWVRQAPGKGLEWVSTITTGGSHTYYADSVEGRFTISRDNAKNSLYLQMNSLRAEDTAVYYCARQDGNFLMDYWGQGTLVTVSS VL: DVVMTQTPLSLPVTLGQPASISCKSSQSLLDSDGKTYLNWLQQRPGQSPKRLIYLVSKLDSGVPDRFTGSGSGTDFTLKISRVEAEDVGVYYCWQGTHLPFTFGQGTKVEIKR | 3.7% | 6.3% | 14.2% |  |  |  |  |  |  | FXa assay % of FXa alone, 5 nM Ab, 10 nM TFPI [3]: 4.8%; FXa assay OD, 20 nM Ab, 10 nM TFPI [3]: 0.102
3 | clone 4287 (antibody, V domains shown) VH: EVQLVESGGGLVKPGGSLRLSCAASGFTFSKYAMNWFRQAPGKGLEWVSTITTGGSYTYYADSVEGRFTISRDNAKNSLYLQMNSLRAEDTAVYYCARQHPYGNFLMDYWGQGTLVTVSS VL: DVVMTQTPLSLPVTLGQPASISCKSSQSLLDIDGKTYLNWLQQRPGQSPKRLIYLVSKLDSGVPDRFTGSGSGTDFTLKISRVEAEDVGVYYCWQGTHFPFTFGQGTKVEIKR |  |  |  |  |  |  |  |  |  | FXa assay % of FXa alone, 2.5 nM Ab, 10 nM TFPI [4]: 3.4%; FXa assay % of FXa alone, 5 nM Ab, 10 nM TFPI [4]: 3.5%; FXa assay % of FXa alone, 10 nM Ab, 10 nM TFPI [4]: 3.3%; FXa assay % of FXa alone, 20 nM Ab, 10 nM TFPI [4]: 2.5%
4 | clone 3120 (antibody, V domains shown) VH: EVQLVESGGGLVKPGGSLRLSCAASGFTFSSYAMNWVRQAPGKGLEWVSTITTGGSYTYYADSVEGRFTISRDNAKNSLYLQMNSLRAEDTAVYYCARQDGYFLMDYWGQGTLVTVSS VL: DVVMTQTPLSLPVTLGQPASISCKSSQSLLDIDGKTYLNWLQQRPGQSPKRLIYLVSKLDSGVPDRFTGSGSGTDFTLKISRVEAEDVGVYYCWQGTHFPFTFGQGTKVEIKR |  |  |  | 6.4% | 9.1% | 33.4% | 81.3% | 0.258 | 0.626 | FXa assay OD, 2.5 nM Ab, 10 nM TFPI [5]: 0.0495; FXa assay OD, 5 nM Ab, 10 nM TFPI [5]: 0.07
5 | clone 4141 (antibody, V domains shown) VH: EVQLVESGGGLVKPGGSLRLSCAASGFTFSSYAMNWVRQAPGKGLEWVGTITTGGSHTYYADSVEGRFTISRDNAKNSLYLQMNSLRAEDTAVYYCARQDGYFLMDYWGQGTLVTVSS VL: DVVMTQTPLSLPVTLGQPASISCKSSQSLLDVDGKTYLNWLQQRPGQSPKRLIYLVSKLDSGVPDRFTGSGSGTDFTLKISRVEAEDVGVYYCWQGTHFPFTFGQGTKVEIKR |  |  |  | 6.4% | 8.4% | 16.7% | 80.5% | 0.129 | 0.62 | FXa assay OD, 2.5 nM Ab, 10 nM TFPI [5]: 0.0495
6 | clone 1214 (antibody, V domains shown) VH: EVQLVESGGGLVKPGGSLRLSCAASGFTFSSYAMNWVRQAPGKGLEWVSTITTGGSYTYYADSVEGRFTISRDNAKNSLYLQMNSLRAEDTAVYYCARQDGNFLMDYWGQGTLVTVSS VL: DVVMTQTPLSLPVTLGQPASISCKSSQSLLDVDGKTYLNWLQQRPGQSPKRLIYLVSKLDSGVPDRFTGSGSGTDFTLKISRVEAEDVGVYYCWQGTHFPFTFGQGTKVEIKR |  |  |  |  |  |  |  |  |  | effect of inhibiting TFPI, FXa activity assay, Ab 10 nM [1]: ~63%; effect of inhibiting TFPI, FXa activity assay, Ab 20 nM [1]: ~77%; FXa assay % of FXa alone, 2.5 nM Ab, 10 nM TFPI [4]: 6.9%; FXa assay % of FXa alone, 5 nM Ab, 10 nM TFPI [4]: 23.2%; FXa assay OD, 2.5 nM Ab, 10 nM TFPI [4]: 0.06; FXa assay OD, 5 nM Ab, 10 nM TFPI [4]: 0.202; FXa assay OD, 10 nM Ab, 10 nM TFPI [4]: 0.545; FXa assay OD, 20 nM Ab, 10 nM TFPI [4]: 0.672
7 | clone 3115 (antibody, V domains shown) VH: EVQLVESGGGLVKPGGSLRLSCAASGFTFSSYAMNWVRQAPGKGLEWVGTITTGGSHTYYADSVDGRFTISRDNAKNSLYLQMNSLRAEDTAVYYCARQDGNFLMDYWGQGTLVTVSS VL: DVVMTQTPLSLPVTLGQPASISCKSSQSLLDVDGKTYLNWLQQRPGQSPKRLIYLVSKLDSGVPDRFTGSGSGTDFTLKISRVEAEDVGVYYCWQGTHFPFTFGQGTKVEIKR |  |  |  | 6.2% | 8.1% | 16.2% | 69.1% | 0.125 | 0.532 | 
8 | clone A24 (antibody, V domains shown) VH: EVQLVESGGGLVKPGGSLRLSCAASGFTFHSYAMNWVRQAPGKGLEWVSTITTRGSYTYYADSVEGRFTISRDNAKNSLYLQMNSLRAEDTAVYYCARQDGNFLMDYWGQGTLVTVSS VL: DVVMTQTPLSLPVTLGQPASISCKSSQSLLDVDGKTYLNWLQQRPGQSPKRLIYLVSKLDSGVPDRFTGSGSGTDFTLKISRVEAEDVGVYYCWQGTHFPFTFGQGTKVEIKR |  |  |  |  |  |  |  |  |  | FXa assay % of FXa alone, 2.5 nM Ab, 10 nM TFPI [6]: 5%; FXa assay % of FXa alone, 20 nM Ab, 10 nM TFPI [6]: 4%
9 | clone 3007 (antibody, V domains shown) VH: EVQLVESGGGLVKPGGSLRLSCAASGFTFTSYAMNWVRQAPGKGLEWVSTITLGGSYTYYADSVQGRFTISRDNAKNSLYLQMNSLRAEDTAVYYCARQDGNFLMDYWGQGTLVTVSS VL: DVVMTQTPLSLPVTLGQPASISCKSSQSLLDLDGKTYLNWLQQRPGQSPKRLIYLVSKLDSGVPDRFTGSGSGTDFTLKISRVEAEDVGVYYCWQGTHFPFTFGQGTKVEIKR | 3.5% | 3.6% | 3% |  |  |  |  |  |  | FXa assay % of FXa alone, 5 nM Ab, 10 nM TFPI [3]: 3.6%
10 | clone 3024 (antibody, V domains shown) VH: EVQLVESGGGLVKPGGSLRLSCAASGFTFSSYAMSWVRQAPGKGLEWVSTITTGGSYTYYADSVQGRFTISRDNAKNSLYLQMNSLRAEDTAVYYCARQDGNFLMDYWGQGTLVTVSS VL: DVVMTQTPLSLPVTLGQPASISCKSSQSLLDSDGKTYLNWLQQRPGQSPKRLIYLVSKLDSGVPDRFTGSGSGTDFTLKISRVEAEDVGVYYCWQGTHLPFTFGQGTKVEIKR | 3.6% | 6.6% | 32.5% |  |  |  |  |  |  | FXa assay % of FXa alone, 5 nM Ab, 10 nM TFPI [3]: 4.2%; FXa assay OD, 2.5 nM Ab, 10 nM TFPI [3]: 0.026; FXa assay OD, 20 nM Ab, 10 nM TFPI [3]: 0.234
11 | clone 3131 (antibody, V domains shown) VH: EVQLVESGGGLVKPGGSLRLSCAASGFTFSSYAMSWVRQAPGKGLEWVSTITTGGSYTYYADSVQGRFTISRDNAKNSLYLQMNSLRAEDTAVYYCARQDGQFLMDYWGQGTLVTVSS VL: DVVMTQTPLSLPVTLGQPASISCKSSQSLLDIDGKTYLNWLQQRPGQSPKRLIYLVSKLDSGVPDRFTGSGSGTDFTLKISRVEAEDVGVYYCWQGTHFPFTFGQGTKVEIKR |  |  |  | 6.6% | 7.7% | 14.9% | 61.6% | 0.115 | 0.474 | 
12 | clone 1021 (antibody, V domains shown) VH: EVQLVESGGGLVKPGGSLRLSCAASGFTFSSYAMNWVRQAPGKGLEWVSTITTGGSYTYYADSVDGRFTISRDNAKNSLYLQMNSLRAEDTAVYYCARQDGHFLMDYWGQGTLVTVSS VL: DVVMTQTPLSLPVTLGQPASISCKSSQSLLDIDGKTYLNWLQQRPGQSPKRLIYLVSKLDSGVPDRFTGSGSGTDFTLKISRVEAEDVGVYYCWQGTHFPFTFGQGTKVEIKR | 4.7% | 32.9% | 78.7% |  |  |  |  |  |  | FXa assay OD, 2.5 nM Ab, 10 nM TFPI [3]: 0.034; FXa assay OD, 10 nM Ab, 10 nM TFPI [3]: 0.236; FXa assay OD, 20 nM Ab, 10 nM TFPI [3]: 0.566
13 | clone A25 (antibody, V domains shown) VH: EVQLVESGGGLVKPGGSLRLSCAASGFTFSSYAMNWVRQAPGKGLEWVSTITTGGSHTYYADSVEGRFTISRDNAKNSLYLQMNSLRAEDTAVYYCARQDGNFLMDYWGQGTLVTVSS VL: DVVMTQTPLSLPVTLGQPASISCKSSQSLLDRDGKTYLNWLQQRPGQSPKRLIYLVSKLDSGVPDRFTGSGSGTDFTLKISRVEAEDVGVYYCWQGTHFPFTFGQGTKVEIKR |  |  |  |  |  |  |  |  |  | FXa assay % of FXa alone, 2.5 nM Ab, 10 nM TFPI [6]: 5.6%; FXa assay % of FXa alone, 10 nM Ab, 10 nM TFPI [6]: 5.3%
